Measured values taken from the supplement of paper PMC7877785.
± gives the uncertainty stated by the source.

Assay: self-splicing fitness, log relative to wild type (ln ratio); higher = more splicing; Tetrahymena group I intron in knt gene, E. coli kanamycin selection, DiMSum; sequences stand for … in CUCUCU…GGAGGGAAAAGUUAUCAGGCAUGCACCUGGUAGCUAGUCUUUAAACCAAUAGAUUGCAUCGGUUUAAAAGGCAAGACCGUCAAAUUGCGGGAAAGGGGUCAACAGCCGUUCAGUACCAAGUCUCAGGGGAAACUUUGAGAUGGCCUUGCAAAGGGUAUGGUAAUAAGCUGACGGACAUGGUCCUAACCACGCAGCCAAGUCCUAAGUCAACAGAUCUUCUGUUGAUAUGGAUGCAGUUCACAGACUAAAUGUCGGUCGGGGAAGAUGUAUUCUUCUCAUAAGAUAUAGUCGGACCUCUCCUUAAUGGGAGCUAGCGGAUGAAGUGAUGCAACACUGGAGCCGCUGGGAACUAAUUUGUAUGCGAAAGUAUAUUGAUUAGUUUUGGAGUACUCGUGGUCG
Summary of the method: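 Fitness was computed with DiMSum as the error-weighted combination of replicate fold changes, kanamycin versus none, each normalised to wild type. The library randomised all eight intron nucleotides of the P1ex region, with the intron placed in the knt kanamycin-resistance gene on pET-22b(+) in E. coli BL21(DE3). Six replicate transformations were grown overnight at 37°C or 30°C on LB agar with or without 25 μg/mL kanamycin, plus 100 μg/mL carbenicillin, 50 μM IPTG and 0.2% rhamnose. Pooled colonies were amplicon-sequenced on an Illumina HiSeq 2500.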

Row | Sequence | self-splicing fitness (ln) (30 °C) | self-splicing fitness (ln) (37 °C)
1 | AAAAAGCAAUAUUACGAAAU | -1.91 ± 0.091 | -1.01 ± 0.12
2 | AAAAAGCAAUAUUACGAAUU | -1.3 ± 0.072 | -1.13 ± 0.089
3 | AAAAAGCAAUAUUACGAUGG | -2.81 ± 0.12 | -0.923 ± 0.11
4 | AAAAAGCAAUAUUACGCAAC | -2.16 ± 0.15 | -1.99 ± 0.24
5 | AAAAAGCAAUAUUACGCCAU | -2.87 ± 0.22 | -1.71 ± 0.24
6 | AAAAAGCAAUAUUACGCGCU | -0.379 ± 0.076 | -0.358 ± 0.091
7 | AAAAAGCAAUAUUACGCUGU | -2.69 ± 0.13 | -1.69 ± 0.11
8 | AAAAAGCAAUAUUACGGACU | -0.0499 ± 0.067 | -0.0238 ± 0.083
9 | AAAAAGCAAUAUUACGGAUG | -2.17 ± 0.094 | -1.23 ± 0.095
10 | AAAAAGCAAUAUUACGGCAG | -1.32 ± 0.074 | -0.434 ± 0.095
11 | AAAAAGCAAUAUUACGGCAU | 0.0355 ± 0.061 | 0.55 ± 0.081
12 | AAAAAGCAAUAUUACGGGUA | -1.61 ± 0.11 | -0.435 ± 0.11
13 | AAAAAGCAAUAUUACGGUCG | -0.302 ± 0.062 | 0.273 ± 0.083
14 | AAAAAGCAAUAUUACGUAUU | -1.92 ± 0.077 | -1.39 ± 0.11
15 | AAAAAGCAAUAUUACGUUUA | -1.4 ± 0.1 | -0.799 ± 0.091
16 | AAACAGCAAUAUUACGAUGA | -1.34 ± 0.067 | -0.0116 ± 0.067
17 | AAACAGCAAUAUUACGCAGA | -2.53 ± 0.15 | -1.42 ± 0.11
18 | AAACAGCAAUAUUACGCGUC | -2.3 ± 0.095 | -1.78 ± 0.12
19 | AAACAGCAAUAUUACGGCCG | -1.69 ± 0.13 | -0.732 ± 0.16
20 | AAACAGCAAUAUUACGGUAG | -2.8 ± 0.12 | -2.02 ± 0.12
21 | AAACAGCAAUAUUACGUACA | -1.23 ± 0.073 | -0.0501 ± 0.082
22 | AAACAGCAAUAUUACGUAUC | -3.98 ± 0.17 | -1.97 ± 0.12
23 | AAACAGCAAUAUUACGUCAA | -2.45 ± 0.11 | -1.44 ± 0.087
24 | AAACAGCAAUAUUACGUCGA | -0.86 ± 0.065 | -0.774 ± 0.073

Row | Sequence | self-splicing fitness (ln) (30 °C) | self-splicing fitness (ln) (37 °C)
25 | AAACAGCAAUAUUACGUGAC | -3.5 ± 0.14 | -2.29 ± 0.13
26 | AAACAGCAAUAUUACGUGCC | -2 ± 0.1 | -1.31 ± 0.13
27 | AAACAGCAAUAUUACGUGGG | -3.64 ± 0.13 | -2.71 ± 0.11
28 | AAACAGCAAUAUUACGUGUC | -4.08 ± 0.15 | -2.78 ± 0.13
29 | AAACAGCAAUAUUACGUUCC | -2.55 ± 0.16 | -1.13 ± 0.19
30 | AAACAGCAAUAUUACGUUGC | -3.24 ± 0.11 | -3.26 ± 0.18
31 | AAAGAGCAAUAUUACGAGAU | -3.95 ± 0.17 | -3.28 ± 0.22
32 | AAAGAGCAAUAUUACGAGCU | – | -2.09 ± 0.28
33 | AAAGAGCAAUAUUACGAGUG | -3.95 ± 0.19 | -2.38 ± 0.16
34 | AAAGAGCAAUAUUACGAUAA | -3.45 ± 0.18 | -2.2 ± 0.22
35 | AAAGAGCAAUAUUACGAUCC | – | -1.6 ± 0.32
36 | AAAGAGCAAUAUUACGCACU | -1.46 ± 0.12 | -0.12 ± 0.15
37 | AAAGAGCAAUAUUACGCAGC | – | -2.77 ± 0.41
38 | AAAGAGCAAUAUUACGCCUA | -2.22 ± 0.21 | -1.81 ± 0.25
39 | AAAGAGCAAUAUUACGCGCA | -2.39 ± 0.17 | -1.5 ± 0.12
40 | AAAGAGCAAUAUUACGCGUC | -2.18 ± 0.2 | -2.6 ± 0.21
41 | AAAGAGCAAUAUUACGCGUU | -2.13 ± 0.14 | -1.32 ± 0.14
42 | AAAGAGCAAUAUUACGCUAC | – | -2.81 ± 0.32
43 | AAAGAGCAAUAUUACGCUAG | -2.87 ± 0.17 | -2.42 ± 0.27
44 | AAAGAGCAAUAUUACGCUUG | -1.67 ± 0.13 | -1.19 ± 0.18
45 | AAAGAGCAAUAUUACGGCCC | -3.78 ± 0.37 | -1.59 ± 0.34
46 | AAAGAGCAAUAUUACGGCUG | -2.36 ± 0.1 | -1.12 ± 0.12
47 | AAAGAGCAAUAUUACGGGAG | -3.34 ± 0.21 | -2.8 ± 0.27
48 | AAAGAGCAAUAUUACGUAAA | -3.11 ± 0.15 | -1.42 ± 0.13

Row | Sequence | self-splicing fitness (ln) (30 °C) | self-splicing fitness (ln) (37 °C)
49 | AAAGAGCAAUAUUACGUCUA | -1.12 ± 0.093 | -0.882 ± 0.093
50 | AAAGAGCAAUAUUACGUGCC | -3.09 ± 0.21 | -2.35 ± 0.22
51 | AAAGAGCAAUAUUACGUUCA | -1.03 ± 0.094 | -0.639 ± 0.097
52 | AAAGAGCAAUAUUACGUUCG | -1.54 ± 0.11 | -0.974 ± 0.15
53 | AAAGAGCAAUAUUACGUUUA | -1.71 ± 0.17 | -1.12 ± 0.21
54 | AAAUAGCAAUAUUACGAACG | -1.42 ± 0.14 | -0.384 ± 0.16
55 | AAAUAGCAAUAUUACGAAGU | -2.55 ± 0.18 | -2.16 ± 0.2
56 | AAAUAGCAAUAUUACGACAG | -2.02 ± 0.13 | -1.34 ± 0.16
57 | AAAUAGCAAUAUUACGAUAG | -3.17 ± 0.27 | -2.49 ± 0.23
58 | AAAUAGCAAUAUUACGAUGG | -2.87 ± 0.17 | -1.97 ± 0.2
59 | AAAUAGCAAUAUUACGAUUA | 0.0855 ± 0.11 | 0.0228 ± 0.096
60 | AAAUAGCAAUAUUACGAUUU | -0.479 ± 0.061 | -0.0855 ± 0.081
61 | AAAUAGCAAUAUUACGCAGC | -3.27 ± 0.33 | -0.974 ± 0.25
62 | AAAUAGCAAUAUUACGCUGA | -2.31 ± 0.16 | -1.29 ± 0.18
63 | AAAUAGCAAUAUUACGCUGC | -2.73 ± 0.2 | -1.86 ± 0.41
64 | AAAUAGCAAUAUUACGGUCA | -0.724 ± 0.069 | 0.0582 ± 0.071
65 | AAAUAGCAAUAUUACGGUCG | -0.942 ± 0.065 | -0.272 ± 0.095
66 | AAAUAGCAAUAUUACGGUGU | -2.83 ± 0.13 | -2.05 ± 0.15
67 | AAAUAGCAAUAUUACGUAAG | -1.37 ± 0.078 | -0.721 ± 0.096
68 | AAAUAGCAAUAUUACGUAAU | -3.04 ± 0.12 | -1.75 ± 0.12
69 | AAAUAGCAAUAUUACGUGCU | -0.869 ± 0.11 | -1.22 ± 0.15
70 | AAAUAGCAAUAUUACGUUGU | -4.44 ± 0.29 | -1.02 ± 0.12
71 | AACAAGCAAUAUUACGAAUU | -1.9 ± 0.091 | -0.666 ± 0.12
72 | AACAAGCAAUAUUACGACAG | -2.25 ± 0.078 | -1.76 ± 0.09

Row | Sequence | self-splicing fitness (ln) (30 °C) | self-splicing fitness (ln) (37 °C)
73 | AACAAGCAAUAUUACGAGAA | -2.78 ± 0.32 | -2.03 ± 0.21
74 | AACAAGCAAUAUUACGAGAC | -1.88 ± 0.11 | -2.67 ± 0.19
75 | AACAAGCAAUAUUACGAGAU | -3.08 ± 0.14 | -1.62 ± 0.12
76 | AACAAGCAAUAUUACGAGGA | -1.76 ± 0.14 | -2.42 ± 0.16
77 | AACAAGCAAUAUUACGCAAC | -3.89 ± 0.22 | -1.63 ± 0.12
78 | AACAAGCAAUAUUACGCAAG | -1.88 ± 0.084 | -0.493 ± 0.086
79 | AACAAGCAAUAUUACGCGGC | -3.28 ± 0.26 | -1.71 ± 0.19
80 | AACAAGCAAUAUUACGCGUU | -3.91 ± 0.2 | -3.32 ± 0.18
81 | AACAAGCAAUAUUACGCUUA | -2.08 ± 0.1 | -1.21 ± 0.1
82 | AACAAGCAAUAUUACGGAAG | -3.98 ± 0.18 | -2.74 ± 0.15
83 | AACAAGCAAUAUUACGGACA | -1.6 ± 0.094 | 0.312 ± 0.095
84 | AACAAGCAAUAUUACGGACC | -1.84 ± 0.1 | -0.201 ± 0.11
85 | AACAAGCAAUAUUACGGCGC | -0.737 ± 0.1 | 0.0559 ± 0.12
86 | AACAAGCAAUAUUACGUAAG | -1.93 ± 0.058 | -1.16 ± 0.077
87 | AACAAGCAAUAUUACGUCAC | -3.77 ± 0.22 | -2.29 ± 0.23
88 | AACAAGCAAUAUUACGUGAU | -2.2 ± 0.069 | -1.46 ± 0.08
89 | AACAAGCAAUAUUACGUUAA | -2.55 ± 0.15 | -1.67 ± 0.14
90 | AACAAGCAAUAUUACGUUAG | -4.21 ± 0.22 | -3.26 ± 0.24
91 | AACAAGCAAUAUUACGUUCA | -1.41 ± 0.053 | -0.805 ± 0.063
92 | AACCAGCAAUAUUACGAAGC | -3.37 ± 0.13 | -0.929 ± 0.099
93 | AACCAGCAAUAUUACGAUAU | -0.891 ± 0.057 | -0.0726 ± 0.089
94 | AACCAGCAAUAUUACGAUUG | -3.19 ± 0.15 | -1.48 ± 0.11
95 | AACCAGCAAUAUUACGCACC | 0.0606 ± 0.077 | 0.308 ± 0.1
96 | AACCAGCAAUAUUACGCAGA | -1.76 ± 0.11 | -1.37 ± 0.11
